In US20190062442A1:

Target: FLAG-tagged human PrP^c_N1 (recombinant N-terminal fragment of cellular prion protein, 23-111 amino-acids) (human) (UniProt P04156)
Sequence (P04156 23-111): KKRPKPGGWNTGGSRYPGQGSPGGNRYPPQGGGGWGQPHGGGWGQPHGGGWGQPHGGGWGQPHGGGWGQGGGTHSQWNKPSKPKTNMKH

“anti-CD230 (Prion) antibody 6D11 Mu IgG2a (BioLegend, San Diego, Calif.)” was tested, and the IC50 was 17.6 nM.
